One experiment deals with E3 ligase CDC20. The settings on record: read-out: KD for CDC20; cited from earlier work.
The target in a further experiment is T1, USP3 ZnF-UBD (Homo sapiens, UniProt Q9Y6I4).
T1 sequence (Q9Y6I4 1-131): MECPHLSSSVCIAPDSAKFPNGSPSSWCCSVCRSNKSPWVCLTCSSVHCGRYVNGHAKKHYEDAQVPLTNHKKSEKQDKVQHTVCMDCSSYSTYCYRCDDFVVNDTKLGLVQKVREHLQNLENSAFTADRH
The experiment can be described thus: SPR binding to USP3 ZnF-UBD. In general terms: Surface plasmon resonance follows binding to a sensor surface in real time, without labels.

Another experiment has as its target T2, USP5 ZnF-UBD (Homo sapiens, UniProt P45974).
T2 sequence (P45974 171-290): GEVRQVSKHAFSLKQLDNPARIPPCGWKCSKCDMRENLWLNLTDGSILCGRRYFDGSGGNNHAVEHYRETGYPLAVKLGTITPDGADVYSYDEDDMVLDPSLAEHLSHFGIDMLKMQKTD
The experiment can be described thus: SPR binding to USP5 ZnF-UBD.

The target in another experiment is T3, USP13 ZnF-UBD (Homo sapiens, UniProt Q92995).
T3 sequence (Q92995 183-307): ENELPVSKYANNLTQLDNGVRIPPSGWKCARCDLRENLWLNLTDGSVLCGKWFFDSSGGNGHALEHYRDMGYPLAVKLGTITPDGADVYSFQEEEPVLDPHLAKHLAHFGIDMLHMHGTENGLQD
The experiment can be described thus: SPR binding to USP13 ZnF-UBD.

The target of another experiment is USP16 ZnF-UBD (Homo sapiens, UniProt Q9Y5T5). Description: SPR binding to USP16 ZnF-UBD.
The target in a further experiment is USP20 ZnF-UBD (Homo sapiens, UniProt Q9Y2K6). The experiment can be described thus: SPR binding to USP20 ZnF-UBD.
The target of a further experiment is T4, USP33 ZnF-UBD (Homo sapiens, UniProt Q8TEY7).
T4 sequence (Q8TEY7 29-134): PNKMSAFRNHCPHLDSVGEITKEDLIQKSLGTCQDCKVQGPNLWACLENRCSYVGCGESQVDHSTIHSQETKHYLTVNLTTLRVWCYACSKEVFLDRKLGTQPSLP
The experiment can be described thus: SPR binding to USP33 ZnF-UBD.

In another experiment the target is T5, USP39 ZnF-UBD (Homo sapiens, UniProt Q53GS9).
T5 sequence (Q53GS9 84-194): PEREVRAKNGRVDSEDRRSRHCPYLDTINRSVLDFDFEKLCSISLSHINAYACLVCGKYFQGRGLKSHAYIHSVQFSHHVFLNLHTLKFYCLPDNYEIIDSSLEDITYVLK
Description: SPR binding to USP39 ZnF-UBD.

In the next experiment the target is T6, USP49 ZnF-UBD (Homo sapiens, UniProt Q70CQ1).
T6 sequence (Q70CQ1 1-115): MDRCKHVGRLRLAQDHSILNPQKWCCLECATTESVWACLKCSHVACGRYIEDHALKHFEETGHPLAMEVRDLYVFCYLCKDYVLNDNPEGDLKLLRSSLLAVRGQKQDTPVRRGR
The experiment can be described thus: SPR binding to USP49 ZnF-UBD.

The next experiment addresses T7, USP51 ZnF-UBD (Homo sapiens, UniProt Q70EK9).
T7 sequence (Q70EK9 176-305): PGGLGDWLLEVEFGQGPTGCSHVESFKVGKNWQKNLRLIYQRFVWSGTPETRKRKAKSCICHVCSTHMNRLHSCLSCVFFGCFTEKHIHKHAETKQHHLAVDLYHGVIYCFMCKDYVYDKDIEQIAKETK
Description: SPR binding to USP51 ZnF-UBD.

The next experiment deals with T8, BRAP ZnF-UBD (Homo sapiens, UniProt Q7Z569).
T8 sequence (Q7Z569 304-390): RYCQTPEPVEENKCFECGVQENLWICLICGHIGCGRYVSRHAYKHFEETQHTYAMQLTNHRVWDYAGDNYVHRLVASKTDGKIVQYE
Description: SPR binding to BRAP ZnF-UBD.

A further experiment concerns the target T9, HDAC6 ZnF-UBD (Homo sapiens, UniProt Q9UBN7).
T9 sequence (Q9UBN7 1109-1215): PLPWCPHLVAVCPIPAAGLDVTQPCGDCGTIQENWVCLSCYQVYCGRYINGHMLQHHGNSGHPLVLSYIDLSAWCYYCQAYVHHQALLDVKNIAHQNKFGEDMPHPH
The experiment can be described thus: SPR binding to HDAC6 ZnF-UBD.

USP16 ZnF-UBD, sequence (Q9Y5T5 25-185): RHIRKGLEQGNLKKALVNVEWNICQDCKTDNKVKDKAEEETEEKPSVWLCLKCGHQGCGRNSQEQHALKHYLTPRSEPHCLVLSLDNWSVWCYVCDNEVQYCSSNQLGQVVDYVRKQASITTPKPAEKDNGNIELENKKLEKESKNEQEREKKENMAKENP
USP20 ZnF-UBD, sequence (Q9Y2K6 1-141): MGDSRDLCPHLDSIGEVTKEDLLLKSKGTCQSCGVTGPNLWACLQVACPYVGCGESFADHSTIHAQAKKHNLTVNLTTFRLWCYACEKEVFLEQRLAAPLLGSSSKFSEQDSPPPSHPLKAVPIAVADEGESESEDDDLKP

Consider `Cc1ncc([N+](=O)[O-])n1CCOC(=O)NC(Nc1ncccn1)C(Cl)(Cl)Cl` (stereo not shown) [Apcin], for which, at E3 ligase CDC20, the Kd is 10 µM.
Consider `O=C(O)CNc1ncnc2ccccc12` [Compound 25], for which the Kd at USP3 ZnF-UBD (KD (µM) USP3) was determined as 191 µM.
Take “Ub-RGGdel: C-terminal RGG-deleted Ub construct, negative control in the SPR assay”: the “KD (µM) USP3” value with USP3 ZnF-UBD is “No binding”. For the same compound, the “KD (µM) USP5” value with USP5 ZnF-UBD is “No binding”. For the same compound, the “KD (µM) USP13” value in the experiment with USP13 ZnF-UBD is “No binding”. In addition, the “KD (µM) USP16” value in the experiment with USP16 ZnF-UBD is given as “No binding”. For the same compound, in the experiment with USP20 ZnF-UBD, the “KD (µM) USP20” value is listed as “No binding”. Also, the “KD (µM) USP33” value with USP33 ZnF-UBD is “No binding”. In addition, in the experiment with USP39 ZnF-UBD, the “KD (µM) USP39” value is “No binding”. In the experiment with USP49 ZnF-UBD, the “KD (µM) USP49” value is given as “No binding”. For the same compound, in the experiment with USP51 ZnF-UBD, the “KD (µM) USP51” value is given as “No binding”. The “KD (µM) BRAP” value with BRAP ZnF-UBD is listed as “No binding”. Also, the “KD (µM) HDAC6” value in the experiment with HDAC6 ZnF-UBD was “No binding”.

The term Kd denotes the concentration at which binding is half-saturated.
